Experimental data: patent US20240092853A1 (Hoffmann-La Roche, published 2024)

Key:
[1] = biological target: T1, IL2R(bg)-Fc construct (human IL2R beta extracellular domain fused to Fc(knob) with avi tag, human IL2R gamma … (human, biotin on the C-terminal avi tag (co-expressed BirA))); test: ELISA: biotinylated IL2R(bg)-Fc coated on neutravidin plates, clone in bacterial supernatant bound at pH 6, washing and 30 min incubation at pH 6.0, 6.5, 7.0 or 7.4, detection with anti-Flag/HRP; absorption at pH 6 set to 1
T1 construct: Knob-into-hole Fc heterodimer; also called IL2Rβγ; human heterodimeric IL-2 receptor beta/gamma
Method: (§1) FIG. 4. Binding analysis for the second set of selected pH-dependent IL2v variants to IL2Rfβγ at pH 6, pH 6.5, pH 7 and pH 7.4 by ELISA. Bacterial supernatants containing clonal pH-dependent IL2v variants were incubated with previously coated IL2Rfβγ. Prior to the detection by an anti-Flag/HRP secondary antibody, extensive washing for 30 minutes was performed at pH 6 or pH 7.4. The absorption at pH 6 was normalized to a value of 1 and the ratio of absorption levels was compared.
25 μl of 50 nM biotinylated antigen per well were coated at pH 6 on 384-well neutravidin plates and blocked with 2% BSA (50 mM BisTris 140 mM NaCL, 2% BSA, pH 6). Bacterial supernatants containing soluble variants of IL2v were re-buffered to pH 6, added to the plates and incubated for 1 h. Subsequently, several washing steps were performed at either pH 6 or pH 7.4 followed by an incubation step in washing buffer for 30 min at the respective pH. Binding of pH-dependent IL2v variants to the IL2R(bg)-Fc construct was detected via Flag tag by using an anti-Flag/HRP secondary antibody. Comparison of the signal between the two conditions (pH6 vs pH7.4) allowed identifying clones that bind in a pH-dependent manner. The phagemid expressing the parental IL2v construct was used as an internal control for a pH-independent signal. Clones with a binding ratio at pH 6 versus pH 7 that greater than 10 were short-listed and re-tested in order to confirm their pH-dependency.
In order to further characterize the selected pH-dependent IL2v variants, they were analyzed for their binding to IL2R(bg)-Fc under four different pH conditions including pH 6, pH 6.5, pH 7, and pH 7.4. Binding at pH 6 was normalized to 1 in order to better compare binding among all clones. […] In general, binding intensity at pH 7 and pH 7.4 was reduced between 10-100-fold

[2] = biological target: T1, IL2R(bg)-Fc construct (human IL2R beta …); test: ELISA: biotinylated IL2R(bg)-Fc coated on neutravidin plates, clone in bacterial supernatant bound at pH 6, washing and 30 min incubation at pH 6 or pH 7.4, detection with anti-Flag/HRP; absorption at pH 6 set to 1
Method: as §1, with “FIG. 3.” for “FIG. 4.”, “the first” for “the second”, “pH 6” for “pH 6, pH 6.5, pH 7”
25 μl of 50 nM biotinylated antigen per well were coated at pH 6 on 384-well neutravidin plates and blocked with 2% BSA (50 mM BisTris 140 mM NaCl, 2% BSA, pH 6). Bacterial supernatants containing soluble variants of IL2v were re-buffered to pH 6, added to the plates and incubated for 1 h. Subsequently, several washing steps were performed at either pH 6 or pH 7.4 followed by an incubation step in washing buffer for 30 min at the respective pH. Binding of pH-dependent IL2v variants to the IL2R(bg)-Fc construct was detected via Flag tag by using an anti-Flag/HRP secondary antibody. Comparison of the signal between the two conditions (pH 6 vs pH 7.4) allowed identifying constructs that bind in a pH-dependent manner. The phagemid expressing the parental IL2v construct was used as an internal pH-independent control. […] (FIG. 3), were selected (SEQ ID NOs 5-19) and converted into one-armed (OA) targeted conjugates.

T1 sequence (chain, as listed by the source limits assumed, chain 1 of 2): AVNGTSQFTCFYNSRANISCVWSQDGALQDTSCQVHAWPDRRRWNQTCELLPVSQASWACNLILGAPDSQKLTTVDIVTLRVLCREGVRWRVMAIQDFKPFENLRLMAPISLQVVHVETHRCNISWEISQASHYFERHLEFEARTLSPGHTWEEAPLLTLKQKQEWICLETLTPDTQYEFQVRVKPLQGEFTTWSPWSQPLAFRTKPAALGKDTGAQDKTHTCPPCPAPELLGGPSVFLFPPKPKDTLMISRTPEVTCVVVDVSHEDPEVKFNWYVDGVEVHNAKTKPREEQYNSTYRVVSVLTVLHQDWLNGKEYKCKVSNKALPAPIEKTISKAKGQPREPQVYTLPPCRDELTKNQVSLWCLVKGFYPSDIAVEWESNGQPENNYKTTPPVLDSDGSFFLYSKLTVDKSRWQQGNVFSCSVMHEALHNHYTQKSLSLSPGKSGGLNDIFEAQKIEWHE
T1 sequence (chain, as listed by the source limits assumed, chain 2 of 2): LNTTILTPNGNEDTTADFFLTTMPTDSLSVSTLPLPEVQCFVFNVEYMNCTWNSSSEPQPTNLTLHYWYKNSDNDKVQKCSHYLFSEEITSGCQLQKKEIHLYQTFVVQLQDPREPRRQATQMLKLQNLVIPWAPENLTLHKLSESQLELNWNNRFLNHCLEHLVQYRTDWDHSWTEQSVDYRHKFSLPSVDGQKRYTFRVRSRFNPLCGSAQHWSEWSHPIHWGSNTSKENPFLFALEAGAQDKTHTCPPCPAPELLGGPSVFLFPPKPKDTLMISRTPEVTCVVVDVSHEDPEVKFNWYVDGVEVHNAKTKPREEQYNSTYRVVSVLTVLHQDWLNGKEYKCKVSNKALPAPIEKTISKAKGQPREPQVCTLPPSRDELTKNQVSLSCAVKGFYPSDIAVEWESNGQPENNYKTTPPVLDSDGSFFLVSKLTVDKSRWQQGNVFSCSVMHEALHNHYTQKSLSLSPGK

Binder | binding result [1] | binding result [2]
ExplResOnc.P177.0035 (IL2v (consensus all)) (ligand, not shown: large carriers, as m20) APASSSTKKTELQLQELLDDLQMILNGINNYKNPKLTRMLTAKFAMPKKATELKHLQCLEEELKPLEEVLNGAQSKNFHLDPRELIENINVIVLELKGSETTFMCEYADETATIVEFLNHWITFAQSIIETLE | binds | –
ExplResOnc.P173.0239 (ligand, not shown: large carriers, as m20) APASSSTKKTELQLQELLLDLEEILNGINNYKNPKLTRMLTAKFAMPKKATELKHLQCLEEELKPLEEVLNGAQSKNFHLHPRELIENINVIVLELKGSETTFMCEYADETATIVEFLNHWITFAQSIIETLD | binds | –
ExplResOnc.P174.0326 (ligand, not shown: large carriers, as m20) APASSSTKKTQLQLEELLDDLDQILNGINNYKNPKLTRMLTAKFAMPKKATELKHLQCLEEELKPLEEVLNGAQSKNFHLDPRELIENINVIVLELKGSETTFMCEYADETATIVEFLNHWITFAQSIIETLE | binds | –
ExplResOnc.P174.0040 (ligand, not shown: large carriers, as m20) APASSSTKKTETQLEQLLDDLQEILNGINNYKNPKLTRMLTAKFAMPKKATELKHLQCLEEELKPLEEVLNGAQSKNFHLDPRELIENINVIVLELKGSETTFMCEYADETATIVEFLNHWITFAQSIIETLE | binds | –
ExplResOnc.P173.0364 (ligand, not shown: large carriers, as m20) APASSSTKKTQLQLEDLLLDLQNILNGINNYKNPKLTRMLTAKFAMPKKATELKHLQCLEEELKPLEEVLNGAQSKNFHLDPRELISNINVIVLELKGSETTFMCEYADETATIVEFLNHWITFAQSIIETLE | binds | –
ExplResOnc.P173.0182 (ligand, not shown: large carriers, as m20) APASSSTKKTELQLEELLLDLQEILNGINNYKNPKLTRMLTAKFAMPKKATELKHLQCLEEELKPLEEVLNGAQSKNFHLNPRELIENINVIVLELKGSETTFMCEYADETATIVEFLNHWITFAESIIETLE | binds | –
ExplResOnc.P173.0156 (ligand, not shown: large carriers, as m20) APASSSTKKTESQLQNLLDDLQEILNGINNYKNPKLTRMLTAKFAMPKKATELKHLQCLEEELKPLEEVLNGAQSKNFHLEPRELIDNINVIVLELKGSETTFMCEYADETATIVEFLNHWITFAQSIIETLE | binds | –
ExplResOnc.P175.0368 (ligand, not shown: large carriers, as m20) APASSSTKKTTEQLQELLDDLQMILNGINNYKNPKLTRMLTAKFAMPKKATELKHLQCLEEELKPLEEVLNGAQSKNFHLDPRELIENINVIVLELKGSETTFMCEYADETATIVEFLNEWITFAQSIIETLD | binds | –
ExplResOnc.P174.0327 (ligand, not shown: large carriers, as m20) APASSSTKKTEEHLQNLLDDLEQILNGINNYKNPKLTRMLTAKFAMPKKATELKHLQCLEEELKPLEEVLNGAQSKNFHLEPRELIDNINVIVLDLKGSETTFMCEYADETATIVEFLNHWITFAQSIISTLE | binds | –
ExplResOnc.P172.0344 (ligand, not shown: large carriers, as m20) APASSYTKKTQERLEQLLLDLEQILNGINNYKNPKLTRMLTAKFAMPKKATELKHLQCLEEELKPLEEVLNGAQSKNFHLNPRELIENINVIVLELKGSETTFMCEYADETATIVEFLNHWITFAQSIIETLD | binds | –
ExplResOnc.P177.0156 (ligand, not shown: large carriers, as m20) APASSSTKKTESQLEELLDDLQQILNGINNYKNPKLTRMLTAKFAMPKKATELKHLQCLEEELKPLEEVLNGAQSKNFHLDPRELIENINVIVLELKGSETTFMCEYADETATIVEFLNHWITFAQSIIETLE | binds | –
ExplResOnc.P178.0145 (ligand, not shown: large carriers, as m20) APASSSTKKTEEQLENLLLDLQNILNGINNYKNPKLTRMLTAKFAMPKKATELKHLQCLEEELKPLEEVLNGAQSKNFHLEPRELISNINVIVLELKGSETTFMCEYADETATIVEFLNHWITFAQSIIETLE | binds | –
ExplResOnc.P173.0371 (ligand, not shown: large carriers, as m20) APASSSTKKTQLQLEELLDDLQQILNGINNYKNPKLTRMLTAKFAMPKKATELKHLQCLEEELKPLEEVLNGAQSKNFHLNPRELIDNINVIVLELKGSETTFMCEYADETATIVEFLNHWITFAQSIIETLD | binds | –
ExplResIEE.P026.099 (ligand, soluble pH-dependent IL2v variant in bacterial supernatant, first library; not shown: C-terminal His tag and Flag tag of the phagemid) APASSSTKKTQEQLEHLLLELQNILNGINNYKNPKLTRMLTAKFAMPKKATELKHLQCLEEELKPLEEVLNGAQSKNFHLNPRELIENINVIVLELKGSETTFMCEYADETATIVEFLNEWIEFAQSIIETLN | – | binds
ExplResOnc.P173.0079 (ligand, not shown: large carriers, soluble pH-dependent IL2v variant in bacterial supernatant, second library) APASSSTKKTQLQLEELLDDLEQILNGINNYKNPKLTRMLTAKFAMPKKATELKHLQCLEEELKPLEEVLNGAQSKNFHLDPRELIDNINVIVLELKGSETTFMCEYADETATIVEFLNHWITFAQSIIETLE | binds | –
ExplResOnc.P173.0127 (ligand, not shown: large carriers, as m20) APASSSTKKTELQLEELLDDLQEILNGINNYKNPKLTRMLTAKFAMPKKATELKHLQCLEEELKPLEEVLNGAQSKNFHLDPRDLIENINVIVLELKGSETTFMCEYADETATIVEFLNHWITFAESIISTLD | binds | –
ExplResOnc.P177.0036 (ligand, not shown: large carriers, as m20) APASSSTKKTELQLQELLDDLQMILNGINNYKNPKLTRMLTAKFAMPKKATELKHLQCLEEELKPLEEVLNGAQSKNFHLQPRELIENINVIVLELKGSETTFMCEYADETATIVEFLNHWITFAQSIIETLE | binds | –
ExplResOnc.P173.0255 (ligand, not shown: large carriers, as m20) APASSSTKKTEDHLQELLLDLEEILNGINNYKNPKLTRMLTAKFAMPKKATELKHLQCLEEELKPLEEVLNGAQSKNFHLNPRELIENINVIVLELKGSETTFMCEYADETATIVEFLNHWITFAQSIIETLE | binds | –
ExplResOnc.P174.0173 (ligand, not shown: large carriers, as m20) APASSSTKKTETQLQELLDDLHMILNGINNYKNPKLTRMLTAKFAMPKKATELKHLQCLEEELKPLEEVLNGAQSKNFHLDPRELIENINVIVLELKGSETTFMCEYADETATIVEFLNHWITFAQSIIETLE | binds | –
ExplResOnc.P173.0259 (ligand, not shown: large carriers, as m20) APASSSTKKTELQLQELLDDLQMILNGINNYKNPKLTRMLTAKFAMPKKATELKHLQCLEEELKPLEEVLNGAQSKNFHLEPRDLIENINVIVLELKGSETTFMCEYADETATIVEFLNHWITFAQSIIETLE | binds | –
ExplResOnc.P175.0125 (ligand, not shown: large carriers, as m20) APASSSTKKTETQLEELLDDLEMILNGINNYKNPKLTRMLTAKFAMPKKATELKHLQCLEEELKPLEEVLNGAQSKNFHLDPRELIENINVIVLELKGSETTFMCEYADETATIVEFLNHWITFAQSIIETLD | binds | –
ExplResOnc.P173.0087 (ligand, not shown: large carriers, as m20) APASSSTKKTEEQLEQLLDDLENILNGINNYKNPKLTRMLTAKFAMPKKATELKHLQCLEEELKPLEEVLNGAQSKNFHLEPRELIENINVIVLELKGSETTFMCEYADETATIVEFLNHWITFAQSIIETLE | binds | –
